The values below are quoted from earlier work in patent US12653898B2, “Polyoxyethylene derivatives and conjugates thereof” (NATIONAL UNIVERSITY CORPORATION HOKKAIDO UNIVERSITY, priority 2023, dated 2026).

Where two headings read alike, the source gives them in different places.

For this data set the following is noted: under physiological conditions.

B1: conjugate of bovine pancreas-derived ribonuclease A (RNase A) and compound 7: conjugate of RNase A and compound 7 (1-benzyl-1H-1,2,3-triazole-4-carbaldehyde) of WO 2020/175680 (conjugate, UniProt P61823 27-150, looked up)
Ribonuclease pancreatic: KETAAAKFERQHMDSSTSAASSSNYCNQMMKSRNLTKDRCKPVNTFVHESLADVQAVCSQKNVACKNGQTNCYQSYSTMSITDCRETGSSKYPNCAYKTTQANKHIIVACEGNPYVPVHFDASV
modifications: triazole carbaldehyde compound 7 conjugate
As to B1, the degradation half-life reads like this: (FIG. 54 of WO 2020/175680) 12 to 18 h; (comparison value from WO 2020/175680) 12 to 18 h.
